Results as given in patent publication US20230019342A1.
Values belong to the binder of their own block, whether it stands above or below them. Square brackets hold non-standard residues; d marks the D form. Primed or numbered codes have the meaning given here. Ends that are not written are not given here. * marks the point of attachment. D‑Lys(pentyne) = D-Lys(pentyne) amide, alkyne-bearing D-lysine, C#CCCC(=O)NCCCC[C@@H](N*)C(N)=O; S3(3) = biotin-PEG2-acylated azidolysine clicked to D-Pra carrying 5-azido-pentanoic acid; Lys(N3) = [N-]=[N+]=NCCCC[C@H](N)C(=O)O; S3″ = biotin-PEG2 linker with azide; dPra = C#CC[C@@H](N)C(=O)O

How the values were obtained:
[1] = molecular target: Inactive Akt2 (with N terminal His6 tag) (human) (UniProt P31751); assay: ELISA, immobilised C-tL, active against inactive Akt2 (FIG. 23E)
[2] = molecular target: Active Akt3 (with N terminal His6 tag) (human) (UniProt Q9Y243); assay: ELISA, C-tL immobilised on streptavidin plate, 25 nM His6 tagged full protein, anti His6 detection, triplicate
Active Akt3 (with N terminal His6 tag) (human), sequence (Q9Y243 other isoform, or with tags, fused parts or gaps): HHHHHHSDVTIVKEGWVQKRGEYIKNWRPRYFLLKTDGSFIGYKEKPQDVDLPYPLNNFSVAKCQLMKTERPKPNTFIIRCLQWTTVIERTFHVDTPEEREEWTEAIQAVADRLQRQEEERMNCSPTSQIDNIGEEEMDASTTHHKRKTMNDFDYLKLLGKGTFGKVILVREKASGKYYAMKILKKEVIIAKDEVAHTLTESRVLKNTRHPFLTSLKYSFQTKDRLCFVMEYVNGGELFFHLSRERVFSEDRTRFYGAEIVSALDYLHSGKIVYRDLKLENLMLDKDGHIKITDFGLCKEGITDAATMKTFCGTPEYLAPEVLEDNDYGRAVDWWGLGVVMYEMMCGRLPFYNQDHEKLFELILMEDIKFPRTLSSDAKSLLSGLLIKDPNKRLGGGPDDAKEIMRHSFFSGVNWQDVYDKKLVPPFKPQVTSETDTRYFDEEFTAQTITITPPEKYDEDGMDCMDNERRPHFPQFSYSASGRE

[3] = molecular target: Active Akt1 (with N terminal His6 tag) (human) (UniProt P31749); assay: as above
Active Akt1 (with N terminal His6 tag) (human), sequence (P31749 other isoform, or with tags, fused parts or gaps): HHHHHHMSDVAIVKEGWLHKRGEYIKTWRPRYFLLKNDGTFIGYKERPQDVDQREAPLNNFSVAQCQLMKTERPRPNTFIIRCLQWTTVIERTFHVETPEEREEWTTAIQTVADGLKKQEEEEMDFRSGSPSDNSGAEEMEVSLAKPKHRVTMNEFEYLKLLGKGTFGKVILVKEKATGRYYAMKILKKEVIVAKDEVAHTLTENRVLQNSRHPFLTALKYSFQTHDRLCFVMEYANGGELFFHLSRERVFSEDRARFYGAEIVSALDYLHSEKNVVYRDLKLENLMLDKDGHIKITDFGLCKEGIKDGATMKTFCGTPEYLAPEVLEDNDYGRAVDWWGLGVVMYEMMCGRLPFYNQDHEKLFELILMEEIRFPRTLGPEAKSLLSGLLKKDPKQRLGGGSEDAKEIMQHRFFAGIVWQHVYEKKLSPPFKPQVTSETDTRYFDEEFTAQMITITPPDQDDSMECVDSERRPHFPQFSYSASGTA

[4] = molecular target: Active Akt2 (with N terminal His6 tag) (human) (UniProt P31751); assay: cell-based or functional assay
[5] = molecular target: Active Akt2 (with N terminal His6 tag) (human) (UniProt P31751); assay: single component ELISA, C-tL as surface-localized capture agent (FIG. 23A)
N-tL = molecular target: T1, N-tL (not fully specified)
T1 chain 1: WKVKL
T1 chain 2: HNGYF
T1 chain 3: XYYRFG

[6] = molecular target: Active Akt2 (with N terminal His6 tag) (human) (UniProt P31751); assay: single-component immunoassay (ELISA, mono-L as detection agent, FIG. 23A)
[7] = molecular target: Active Akt2 (with N terminal His6 tag) (human) (UniProt P31751); assay: single-component ELISA (bi-L as detection agent, FIG. 23A)
[8] = molecular target: Active Akt2 (with N terminal His6 tag) (human) (UniProt P31751); assay: single component ELISA, N-tL as surface-localized capture agent (FIG. 23A)
[9] = molecular target: Active Akt2 (with N terminal His6 tag) (human) (UniProt P31751); assay: SPR, Biacore T100, N-tL immobilised on SA chip, Akt2 protein as analyte, 1:1 model, 10° C.
[10] = molecular target: Active Akt2 (with N terminal His6 tag) (human) (UniProt P31751); assay: not stated there (summary of the ELISA and SPR results)

B1: C-tL (peptide)
peptide 1: Ac-[Lys(N3)][dH][dD]GG[dF]-NH2
peptide 2: {S3″}-[dW][dK][dV][dK]-{D‑Lys(pentyne)-NH2}
peptide 3: [dH][dN]G[dY][dF][dPra]
modifications: not fully specified (bridges); also: branched three-arm conjugate, triazole at chain A 1 to a chain's C-terminus, triazole to a chain's N/C-terminus via S3
selectivity ratio (p-Akt2 over Akt2) (fold (ratio, reference p-Akt2)) [1]: 5
selectivity ratio (Akt2 over Akt3) (fold (ratio, reference full-length Akt2)) [2]: 10
selectivity ratio (Akt2 over Akt1) (fold (ratio, reference full-length Akt2)) [3]: 5
Akt2 kinase activity: phosphorylation of the GSK-3α/β substrate, Western blot, EC50 [4]: 4000 nM
EC50 [5]: 125 nM

B2: Active Akt2 (with N terminal His6 tag) (protein)
chain: HHHHHHMNEVSVIKEGWLHKRGEYIKTWRPRYFLLKSDGSFIGYKERPEAPDQTLPPLNNFSVAECQLMKTERPRPNTFVIRCLQWTTVIERTFHVDSPDEREEWMRAIQMVANSLKQRAPGEDPMDYKCGSPSDSSTTEEMEVAVSKARAKVTMNDFDYLKLLGKGTFGKVILVREKATGRYYAMKILRKEVIIAKDEVAHTVTESRVLQNTRHPFLTALKYAFQTHDRLCFVMEYANGGELFFHLSRERVFTEERARFYGAEIVSALEYLHSRDVVYRDIKLENLMLDKDGHIKITDFGLCKEGISDGATMKTFCGTPEYLAPEVLEDNDYGRAVDWWGLGVVMYEMMCGRLPFYNQDHERLFELILMEEIRFPRTLSPEAKSLLAGLLKKDPKQRLGGGPSDAKEVMEHRFFLSINWQDVVQKKLLPPFKPQVTSEVDTRYFDDEFTAQSITITPPDRYDSLGLLELDQRTHFPQFSYSASIRE
Akt2 kinase activity: phosphorylation of the GSK-3α/β substrate, Western blot (N-tL): The N-tL was found to activate Akt2

B5: N-tL (peptide)
peptide 1: [dW][dK][dV][dK][dL]
peptide 2: [dH][dN]G[dY][dF]
peptide 3: Ac-[dPra][dY][dY][dR][dF]G-NH2
modifications: not fully specified (bridges)
EC50 [8]: 19 nM
Kd [9]: 25 nM
affinity [10]: 20 nM

Continued, values first:

affinity [6]: 3 µM
B3: mono-L (peptide)
peptide: [dPra][dW][dK][dV][dK][dL]-NH2
modifications: not fully specified (residue 1, N-terminus); printed as (D-Pra)-wkvkl; also: D-Pra side chain clicked (triazole) to azide of S1 (azidolysine-PEG2-biotin), biotin label

affinity [7]: 1 µM
B4: bi-L (peptide)
peptide 1: {S3(3)}-[dW][dK][dV][dK][dL]-NH2
peptide 2: [dH][dN]G[dY][dF][dPra]
modifications: triazole (positions not given here); also: branched two-arm conjugate, triazole to a chain's N/C-terminus via S3
